Data on four molecules can be found in patent EP1280904B1 (CALIFORNIA INSTITUTE OF TECHNOLOGY, dated 2005).

Common to all, as to test: cell-based or functional assay
The target in assay [1] is MAS1.
The target in assay [2] is T1, MRGA1-GFP fusion protein (mouse, UniProt Q91WW5 1-304).
T1 sequence: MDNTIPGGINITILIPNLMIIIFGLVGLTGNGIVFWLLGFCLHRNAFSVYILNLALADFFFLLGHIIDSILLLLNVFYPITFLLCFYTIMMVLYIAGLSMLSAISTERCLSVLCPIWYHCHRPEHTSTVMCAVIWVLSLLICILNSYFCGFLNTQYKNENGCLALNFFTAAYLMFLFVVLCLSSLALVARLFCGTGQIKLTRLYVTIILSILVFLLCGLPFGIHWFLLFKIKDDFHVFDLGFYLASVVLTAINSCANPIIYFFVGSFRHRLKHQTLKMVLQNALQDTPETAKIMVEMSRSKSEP

Assay [3] concerns the target MRGA4-GFP fusion protein (mouse) (UniProt Q91WW2).

Where no end group is shown, it is not given here.

MRGA4-GFP fusion protein (mouse), sequence (Q91WW2 9-313 A204G limits assumed, form in doubt): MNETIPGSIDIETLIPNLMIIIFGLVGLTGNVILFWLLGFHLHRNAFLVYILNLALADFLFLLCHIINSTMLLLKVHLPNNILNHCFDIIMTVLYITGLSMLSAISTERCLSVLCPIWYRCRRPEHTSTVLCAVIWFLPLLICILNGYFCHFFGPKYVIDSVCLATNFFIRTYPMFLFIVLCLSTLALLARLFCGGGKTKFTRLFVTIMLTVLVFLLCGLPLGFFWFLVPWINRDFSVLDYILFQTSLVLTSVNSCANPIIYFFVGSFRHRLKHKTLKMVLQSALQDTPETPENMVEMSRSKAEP

NPFF (peptide): the EC50 of calcium dose-response, HEK-G 15 cells in assay [1] stood at 400 nM. The EC50 of calcium dose-response, HEK cells expressing G 15 in assay [2] came to 200 nM.
For the molecule ACTH (peptide), the EC50 of calcium dose-response, HEK cells expressing G 15 (data not shown) is 200 nM in assay [3] and 60 nM in assay [2].
For the molecule NPAF (peptide), in assay [3], the EC50 of calcium dose-response, HEK cells expressing G 15 was 60 nM.
FLRF-NH2 [FLRFamide]: the “EC50 of calcium dose-response, HEK cells expressing G 15” value in assay [2] was determined as 20 nM.
